T1: Human VSIG4-L-His (human, UniProt Q9Y279 20-283)
T1 construct: long isoform ECD with His tag; also called hVSIG4-L
T1 sequence: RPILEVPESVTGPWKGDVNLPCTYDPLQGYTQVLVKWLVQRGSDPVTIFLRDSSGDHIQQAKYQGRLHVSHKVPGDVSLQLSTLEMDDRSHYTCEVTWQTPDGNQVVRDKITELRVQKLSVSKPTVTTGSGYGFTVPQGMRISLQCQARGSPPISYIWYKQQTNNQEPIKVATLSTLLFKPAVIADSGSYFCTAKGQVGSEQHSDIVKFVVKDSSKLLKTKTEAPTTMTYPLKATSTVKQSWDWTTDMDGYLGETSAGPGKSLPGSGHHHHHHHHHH

T2: Cynomolgus Monkey VSIG4-L-His (cynomolgus monkey)
T2 construct: ECD with His tag; also called cyVSIG4-L; cyno VSIG4-L-His
T2 chain: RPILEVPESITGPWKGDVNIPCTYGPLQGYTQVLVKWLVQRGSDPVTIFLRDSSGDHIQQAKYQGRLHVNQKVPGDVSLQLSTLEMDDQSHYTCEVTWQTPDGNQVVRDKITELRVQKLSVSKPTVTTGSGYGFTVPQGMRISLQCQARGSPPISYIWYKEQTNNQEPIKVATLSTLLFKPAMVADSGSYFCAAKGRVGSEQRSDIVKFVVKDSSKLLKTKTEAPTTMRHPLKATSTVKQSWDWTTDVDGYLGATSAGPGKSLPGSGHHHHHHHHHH


Tests used:
Human VSIG4-L-His = biological target: T1, Human VSIG4-L-His; assay: BLI, IgG on AHC sensor, antigen 100 nM
Experimental: (§1) The binding affinity of chimeric antibodies was determined by biolayer interferometry (BLI), using a ForteBio Octet® Red384 system. […] Biosensors were rehydrated prior to the assay in kinetics buffer for 10 minutes and then equilibrated in kinetics buffer for 60 seconds. Antibody was then immobilized for 300 seconds followed by a 120 second baseline wash in fresh kinetics buffer, 300 second analyte association, and 300 second dissociation in the same buffer wells as the baseline wash step. All assay steps occurred at 30° C. with an acquisition rate of 5.0 Hz
(§2) The binding affinity of humanized antibodies and the parental chimeric antibodies was determined by biolayer interferometry (BLI), using a ForteBio Octet® Red384 system, as described above.

[1] = biological target: T2, Cynomolgus Monkey VSIG4-L-His; assay: BLI, IgG on AHC sensor, antigen 100 nM
Experimental: as §1, §2

Row | Binder | KD relative to parental chimera (Human VSIG4-L-His) [fold] | KD relative to parental chimera [1] [fold]
1 | h13H11.C humanized IgG4 (S228P) kappa (antibody, V domains shown) VH: QIQLVQSGSELKKPGASVKVSCKASGYTFENFGMNWVRQAPGQGLEWMGWINTYTGEATYADGFTGRFVFSLDTSVSTAYLQISSLKAEDTAVYYCARDGGFRHFDVWGQGTTVTVSS VL: DTQVTQSPSSLSASVGDRVTITCQTSTDIDDDMNWYQQKPGKAPKLLISEGNTLRTGVPSRFSSSGSGTDFTFTISSLQPEDIATYYCLQSDNLPLTFGGGTKLEIKR | 1.2 | 3.7
2 | h12A12.E humanized IgG4 (S228P) kappa (antibody, V domains shown) VH: QVQMVQSGAEVKKPGASVKVSCKASGYTFTNYWMHWVRQAPGQGLEWMGYINPSTGYTDYNQKFQGRVTMTADKSTSTAYMELSSLRSEDTAVYYCIRGSDYYGRDYWGQGTTVTVSS VL: DIQMTQSPSSLSASVGDRVTITCQASQDISNYLNWYQQKPGKAPKLLIYYTSRLHSGVPSRFSGSGSGTDYTFTISSLQPEDIATYYCRQGNTLPWTFGGGTKLEIKR | 0.6 | 0.6
3 | h12A12.F humanized IgG4 (S228P) kappa (antibody, V domains shown) VH: QVQMVQSGSELKKPGASVKVSCKASGYTFTNYWMHWVRQAPGQGLEWIGYINPSTGYTDYNQGFTGRFVLSADKSSSTAYLQISSLKAEDTAVYYCIRGSDYYGRDYWGQGTTVTVSS VL: DIQMTQSPSSLSASVGDRVTITCQASQDISNYLNWYQQKPGKAPKLLIYYTSRLHSGVPSRFSGSGSGTDYTFTISSLQPEDIATYYCRQGNTLPWTFGGGTKLEIKR | 0.4 | 0.4
4 | h12A12.A humanized IgG4 (S228P) kappa (antibody, V domains shown) VH: QVQMVQSGAEVKKPGASVKVSCKASGYTFTNYWMHWVRQAPGQGLEWMGYINPSTGYTDYNQKFQGRVTMTADKSTSTAYMELSSLRSEDTAVYYCIRGSDYYGRDYWGQGTTVTVSS VL: DIQMTQSPSSLSASVGDRVTITCQASQDISNYLNWYQQKPGKALKLLIYYTSRLHSGVPSRFSGSGSGTDYTFTISSLQPEDIATYFCRQGNTLPWTFGGGTKLEIKR | 0.7 | 1
5 | h12A12.C humanized IgG4 (S228P) kappa (antibody, V domains shown) VH: QVQMVQSGSELKKPGASVKVSCKASGYTFTNYWMHWVRQAPGQGLEWIGYINPSTGYTDYNQGFTGRFVLSADKSSSTAYLQISSLKAEDTAVYYCIRGSDYYGRDYWGQGTTVTVSS VL: DIQMTQSPSSLSASVGDRVTITCQASQDISNYLNWYQQKPGKALKLLIYYTSRLHTGVPSRFSGSGSGTDYTFTISSLQPEDIATYYCRQGNTLPWTFGGGTKLEIKR | 0.5 | 0.5
6 | h12A12.B humanized IgG4 (S228P) kappa (antibody, V domains shown) VH: QVQMVQSGAEVKKPGASVKVSCKASGYTFTNYWMHWVRQAPGQGLEWMGYINPSTGYTDYNQKFQGRVTMTADKSTSTAYMELSSLRSEDTAVYYCIRGSDYYGRDYWGQGTTVTVSS VL: DIQMTQSPSSLSASVGDRVTITCQASQDISNYLNWYQQKPGKALKLLIYYTSRLHTGVPSRFSGSGSGTDYTFTISSLQPEDIATYYCRQGNTLPWTFGGGTKLEIKR | 0.6 | 0.7
7 | h12A12.D humanized IgG4 (S228P) kappa (antibody, V domains shown) VH: QVQMVQSGSELKKPGASVKVSCKASGYTFTNYWMHWVRQAPGQGLEWMGYINPSTGYTDYNQGFTGRFVFSADKSVSTAYLQISSLKAEDTAVYYCIRGSDYYGRDYWGQGTTVTVSS VL: EIVMTQSPATLSLSPGERATLSCRASQDISNYLNWYQQKPGQALRLLIYYTSRRHTGIPARFSGSGSGTDYTLTISSLEPEDFAVYYCRQGNTLPWTFGGGTKLEIKR | 1.1 | 1.2

More lines, now with the values ahead:

Row | KD relative to parental chimera (Human VSIG4-L-His) [fold] | KD relative to parental chimera [1] [fold] | Binder
8 | – | 0.9 | h13H11.H humanized IgG4 (S228P) kappa (antibody, V domains shown) VH: QIQLVQSGSELKKPGASVKVSCKASGYTFENFGMNWVRQAPGQGLEWMGWINTYTGEATYADDFKGRFVFSLDTSVSTAYLQISSLKAEDTAVYYCARDGGFRHFDVWGQGTTVTVSS VL: DTQVTQSPSSLSASVGDRVTITCQTSTDISNYMNWYQQKPGKAPKLLISEGNTLRPGVPSRFSSSGSGTDFTFTISSLQPEDIATYYCLQSDNLPLTFGGGTKLEIKR
9 | 0.8 | 1.7 | h13H11.D humanized IgG4 (S228P) kappa (antibody, V domains shown) VH: QIQLVQSGSELKKPGASVKVSCKASGYTFENFGMNWVRQAPGQGLEWMGWINTYTGEATYADGFTGRFVFSLDTSVSTAYLQISSLKAEDTAVYYCARDGGFRHFDVWGQGTTVTVSS VL: DTQVTQSPSSLSASVGDRVTITCQTSTDISNYMNWYQQKPGKAPKLLISEGNTLRPGVPSRFSSSGSGTDFTFTISSLQPEDIATYYCLQSDNLPLTFGGGTKLEIKR
10 | 2.6 | 1 | h13H11.A humanized IgG4 (S228P) kappa (antibody, V domains shown) VH: QIQLVQSGSELKKPGASVKVSCKASGYTFENFGMNWVRQAPGQGLEWMGWINTYTGEATYADGFTGRFVFSLDTSVSTAYLQISSLKAEDTAVYYCARDGGFRHFDVWGQGTTVTVSS VL: ETQVTQSPSSLSASVGDRVTITCQTSTDIDDDMNWYQQKPGKAPKLLISEGNTLRPGVPSRFSSSGYGTDFTFTISSLQPEDIATYYCLQSDNLPLTFGGGTKLEIKR
11 | 1.8 | 1.1 | h13H11.F humanized IgG4 (S228P) kappa (antibody, V domains shown) VH: QIQLVQSGSELKKPGASVKVSCKASGYTFENFGMNWVRQAPGQGLEWMGWINTYTGEATYADDFKGRFVFSLDTSVSTAYLQISSLKAEDTAVYYCARDGGFRHFDVWGQGTTVTVSS VL: ETQVTQSPSSLSASVGDRVTITCQTSTDIDDDMNWYQQKPGKAPKLLISEGNTLRPGVPSRFSSSGYGTDFTFTISSLQPEDIATYYCLQSDNLPLTFGGGTKLEIKR
12 | 1.2 | 0.9 | h13H11.G humanized IgG4 (S228P) kappa (antibody, V domains shown) VH: QIQLVQSGSELKKPGASVKVSCKASGYTFENFGMNWVRQAPGQGLEWMGWINTYTGEATYADDFKGRFVFSLDTSVSTAYLQISSLKAEDTAVYYCARDGGFRHFDVWGQGTTVTVSS VL: DTQVTQSPSSLSASVGDRVTITCQTSTDIDDDMNWYQQKPGKAPKLLISEGNTLRTGVPSRFSSSGSGTDFTFTISSLQPEDIATYYCLQSDNLPLTFGGGTKLEIKR
13 | 0.8 | 1 | h12A12.H humanized IgG4 (S228P) kappa (antibody, V domains shown) VH: QVQLVQSGSELKKPGASVKVSCKASGYTFTNYWMHWVRQAPGQGLEWMGYINPSTGYTDYNQGFTGRFVFSADTSVSTAYLQISSLKAEDTAVYYCIRGSDYYGRDYWGQGTTVTVSS VL: DIQMTQSPSSLSASVGDRVTITCQASQDISNYLNWYQQKPGKAPKLLIYYTSRLHSGVPSRFSGSGSGTDYTFTISSLQPEDIATYYCRQGNTLPWTFGGGTKLEIKR
14 | 0.7 | 1.1 | h12A12.G humanized IgG4 (S228P) kappa (antibody, V domains shown) VH: QVQLVQSGAEVKKPGASVKVSCKASGYTFTNYWMHWVRQAPGQGLEWMGYINPSTGYTDYNQKFQGRVTMTADTSTSTVYMELSSLRSEDTAVYYCIRGSDYYGRDYWGQGTTVTVSS VL: DIQMTQSPSSLSASVGDRVTITCQASQDISNYLNWYQQKPGKAPKLLIYYTSRLHSGVPSRFSGSGSGTDYTFTISSLQPEDIATYYCRQGNTLPWTFGGGTKLEIKR
